Measured values published in patent US20100322937A1 (published 2010).

Experiments:
[1] = molecular target: T1, L^245C/E^578C EGFR (full-length human, FLAG tag) on BaF/3 cells (human, UniProt P00533 25-1210); test: Scatchard, 125I-EGF on BaF/3 cells, Kd2 (low-affinity site)
T1 construct: whole, on cells
Protocol: (§1) Ligand binding to cells expressing the wt or mutant EGFR was determined at room temperature in the presence of the internalization inhibitor phenylarsine oxide (PAO) (29) by cold saturation experiments. […] All experimental points were prepared in triplicate. At the end of the incubation, the cells were pelleted and washed twice in ice-cold PBS before transferring to fresh tubes for counting in a Wallac WIZARD γ-counter (PerkinElmer, Boston, Mass.). Scatchard plots and estimates of ligand binding affinities and receptor numbers were obtained using the Radlig program (BioSoft, Cambridge, UK).
(§2) Data were analyzed using the “Kell for Windows” RadLig program. ^{(a)}Number of receptors per cell were calculated from the Bₘₐₓ and the number of cells/tube in each ligand binding experiment.

[2] = molecular target: T2, D^563H EGFR (full-length human, FLAG tag) on BaF/3 cells (human, UniProt P00533 25-1210); test: as above
T2 construct: whole, on cells
Protocol: as §1, §2

[3] = molecular target: T3, E^578C EGFR (full-length human, FLAG tag) on BaF/3 cells (human, UniProt P00533 25-1210); test: as above
T3 construct: whole, on cells
Protocol: as §1, §2

[4] = molecular target: T4, Y^246W EGFR (full-length human, FLAG tag) on BaF/3 cells (human, UniProt P00533 25-1210); test: as above
T4 construct: whole, on cells
Protocol: as §1, §2

[5] = molecular target: T5, wtEGFR: full-length human EGFR with FLAG tag after the leader, on BaF/3 cells (human, UniProt P00533 25-1210); test: as above
T5 construct: whole, on cells; BaF/3 cells have no endogenous EGF receptors; also called wtEGFR-BaF/3
Protocol: as §1, §2

[6] = molecular target: T6, Y^246F EGFR (full-length human, FLAG tag) on BaF/3 cells (human, UniProt P00533 25-1210); test: as above
T6 construct: whole, on cells
Protocol: as §1, §2

[7] = molecular target: T7, Y^246D EGFR (full-length human, FLAG tag) on BaF/3 cells (human, UniProt P00533 25-1210); test: as above
T7 construct: whole, on cells
Protocol: as §1, §2

[8] = molecular target: T8, V^583D EGFR (full-length human, FLAG tag) on BaF/3 cells (human, UniProt P00533 25-1210); test: as above
T8 construct: whole, on cells
Protocol: as §1, §2

[9] = molecular target: T2, D^563H EGFR (full-length human, FLAG …); test: cell-based or functional assay
[10] = molecular target: T3, E^578C EGFR (full-length human, FLAG …); test: cell-based or functional assay
[11] = molecular target: T4, Y^246W EGFR (full-length human, FLAG …); test: cell-based or functional assay
[12] = molecular target: T5, wtEGFR: full-length human EGFR with …; test: cell-based or functional assay
[13] = molecular target: T6, Y^246F EGFR (full-length human, FLAG …); test: cell-based or functional assay
[14] = molecular target: T7, Y^246D EGFR (full-length human, FLAG …); test: cell-based or functional assay
[15] = molecular target: T8, V^583D EGFR (full-length human, FLAG …); test: cell-based or functional assay
[16] = molecular target: T1, L^245C/E^578C EGFR (full-length human, …); test: Scatchard, 125I-EGF on BaF/3 cells
Protocol: as §1, §2

[17] = molecular target: T2, D^563H EGFR (full-length human, FLAG …); test: Scatchard, 125I-EGF on BaF/3 cells
Protocol: as §1, §2

[18] = molecular target: T3, E^578C EGFR (full-length human, FLAG …); test: Scatchard, 125I-EGF on BaF/3 cells
Protocol: as §1, §2

[19] = molecular target: T4, Y^246W EGFR (full-length human, FLAG …); test: Scatchard, 125I-EGF on BaF/3 cells
Protocol: as §1, §2

[20] = molecular target: T5, wtEGFR: full-length human EGFR with …; test: Scatchard, 125I-EGF on BaF/3 cells
Protocol: as §1, §2

[21] = molecular target: T6, Y^246F EGFR (full-length human, FLAG …); test: Scatchard, 125I-EGF on BaF/3 cells
Protocol: as §1, §2

[22] = molecular target: T7, Y^246D EGFR (full-length human, FLAG …); test: Scatchard, 125I-EGF on BaF/3 cells
Protocol: as §1, §2

[23] = molecular target: T8, V^583D EGFR (full-length human, FLAG …); test: Scatchard, 125I-EGF on BaF/3 cells
Protocol: as §1, §2

[24] = molecular target: T2, D^563H EGFR (full-length human, FLAG …); test: calculated from Scatchard Kd and Bmax
Protocol: as §1
(§3) The data are representative of at least three separate experiments

[25] = molecular target: T3, E^578C EGFR (full-length human, FLAG …); test: calculated from Scatchard Kd and Bmax
Protocol: as §1, §3

[26] = molecular target: T4, Y^246W EGFR (full-length human, FLAG …); test: calculated from Scatchard Kd and Bmax
Protocol: as §1, §3

[27] = molecular target: T5, wtEGFR: full-length human EGFR with …; test: calculated from Scatchard Kd and Bmax
Protocol: as §1, §3

[28] = molecular target: T6, Y^246F EGFR (full-length human, FLAG …); test: calculated from Scatchard Kd and Bmax
Protocol: as §1, §3

[29] = molecular target: T7, Y^246D EGFR (full-length human, FLAG …); test: calculated from Scatchard Kd and Bmax
Protocol: as §1, §3

[30] = molecular target: T8, V^583D EGFR (full-length human, FLAG …); test: calculated from Scatchard Kd and Bmax
Protocol: as §1, §3

[31] = molecular target: T2, D^563H EGFR (full-length human, FLAG …); test: Scatchard, 125I-EGF on BaF/3 cells, Kd1 (high-affinity site)
Protocol: as §1, §2

[32] = molecular target: T5, wtEGFR: full-length human EGFR with …; test: as above
Protocol: as §1, §2

[33] = molecular target: T8, V^583D EGFR (full-length human, FLAG …); test: as above
Protocol: as §1, §2

B1: Murine EGF, purified from mouse submaxillary glands (ligand, UniProt P01132 977-1029, looked up)
chain: NSYPGCPSSYDGYCLNGGVCMHIESLDSYTCNCVIGYSGDRCQTRDLRWWELR
modifications: iodinated with 125I (Iodogen) as tracer in the Scatchard assays
notes: mature; also called ^125I-EGF
[1]
  Kd: 2.1 nM
[2]
  Kd: 1.7 nM
[3]
  Kd: 1.7 nM
[4]
  Kd: 2.5 nM
[5]
  Kd: 1.6 nM
[6]
  Kd: 2.8 nM
[7]
  Kd: 2.1 nM
[8]
  Kd: 1.3 nM
[9]
  % maximal incorporation ([^3H]Thymidine): 90%
  EC50 for EGF ([^3H]Thymidine incorporation): 0.005 nM
[10]
  % maximal incorporation ([^3H]Thymidine): 100%
  EC50 for EGF ([^3H]Thymidine incorporation): 0.1 nM
[11]
  % maximal incorporation ([^3H]Thymidine): 0%
[12]
  % maximal incorporation ([^3H]Thymidine): 100%
  EC50 for EGF ([^3H]Thymidine incorporation): 0.012 nM
[13]
  % maximal incorporation ([^3H]Thymidine): 16%
  EC50 for EGF ([^3H]Thymidine incorporation): 0.03 nM
[14]
  % maximal incorporation ([^3H]Thymidine): 0%
[15]
  % maximal incorporation ([^3H]Thymidine): 100%
  EC50 for EGF ([^3H]Thymidine incorporation): 0.006 nM
[16]
  % of sites (Kd2): 100%
[17]
  % of sites (Kd1): 4.4%
  % of sites (Kd2): 96.4%
  R/cell (from Bmax): 23000 receptors/cell
[18]
  % of sites (Kd2): 100%
  R/cell (from Bmax): 34500 receptors/cell
[19]
  % of sites (Kd2): 100%
  R/cell (from Bmax): 29000 receptors/cell
[20]
  % of sites (Kd1): 2.6%
  % of sites (Kd2): 97.5%
  R/cell (from Bmax): 34000 receptors/cell
[21]
  % of sites (Kd2): 100%
  R/cell (from Bmax): 30000 receptors/cell
[22]
  % of sites (Kd2): 100%
  R/cell (from Bmax): 12000 receptors/cell
[23]
  % of sites (Kd1): 12.6%
  % of sites (Kd2): 90.8%
  R/cell (from Bmax): 38000 receptors/cell
[24]
  [EGF] at which 500R/cell are occupied: 8 pM
[25]
  [EGF] at which 500R/cell are occupied: 80 pM
[26]
  [EGF] at which 500R/cell are occupied: 60 pM
[27]
  [EGF] at which 500R/cell are occupied: 16 pM
[28]
  [EGF] at which 500R/cell are occupied: 30 pM
[29]
  [EGF] at which 500R/cell are occupied: 400 pM
[30]
  [EGF] at which 500R/cell are occupied: < 1 pM
[31]
  Kd: 0.0176 nM
[32]
  Kd: 0.029 nM
[33]
  Kd: 0.0026 nM
